Experimental data published in publication PMC12598616, “Design and optimization of caspase-1-responsive fluorescent probes for pyroptosis imaging and anti-pyroptosis drug screening” (Chemical Science, 2025).

Tested on: THP-1 cells
Assay: Cytotoxicity assay (CCK-8)
Assay type: cell-based
Conditions: CCK-8, 0–50 μM, 12 h, 37 °C
Description: Cytotoxicity assay (CCK-8)
The cytotoxicity of FPy1 and YPy1 to THP-1 was evaluated by cell counting kit-8 (CCK-8). Briefly, the THP-1 cells were seeded in 96-well plates (5000 cells/well) and cultured at 37 °C for 24 hours. Various concentrations of FPy1 or YPy1 (0, 2.5, 5, 10, 20, 30, 40, 50 μM) in RPMI 1640 medium were added, and the cells were kept incubation for 12 hours. Then, the cells were washed with PBS and incubated in the 100 μL fresh medium with 10 μL CCK8 dye for an additional 2 hours. The absorbance was measured at 450 nm using a Tecan Infinite M1000 Multi-function microplate reader, and cell viability was calculated using the formula:
Cell viability (%) = [(OD test-ODblank)/(ODcontrol-ODblank)] ×100%
Intracellular imaging with FPy1 in THP-1 cells
THP-1 cells were seeded in dishes and cultured overnight. […] The fluorescence imaging was performed under the excitation at 514 nm with signal collection in the range […]
for 4 hours, the cells were further treated with Nig (10 μM) for 2 hours. […] The distribution of FPy1 was analyzed by collecting organelle-specific dye fluorescence at 495-525 nm with 488 nm excitation, while simultaneously detecting FPy1 fluorescence at 530-610 nm with 514 nm excitation. […]
Nucleus pulposus cells were isolated from discs and resuspended in 1mL DMEM/F12 medium containing 10 μM ITS-A. A total of […] were counted and transferred into centrifuge tubes. […]

| Substance | cytotoxicity towards THP-1 cells |
| --- | --- |
| –FLTDG– [FPy1, RhoB donor, hNR quencher] | low cytotoxicity |
| –YVADG– [YPy1, caspase-1-responsive FRET probe with recognition peptide –YVADG–; RhoB donor, hNR quencher] | low cytotoxicity |
